Measured values published in patent publication US20200270343A1 (COMPUGEN, published 2020).

Legend:
[1] = biological target: human VSIG10 protein endogenously expressed on human cell lines (DAN-G, AsPc1/ASPC-1, DU-145, ZR-75) (human) (UniProt Q8N0Z9); assay: FACS on DAN-G cells after VSIG10 siRNA knock down; 10 ug/ml mAb vs mIgG1 kappa isotype
[2] = biological target: human VSIG10 protein endogenously expressed on human cell lines (DAN-G, AsPc1/ASPC-1, DU-145, ZR-75) (human) (UniProt Q8N0Z9); assay: FACS on AsPc1 cells after VSIG10 siRNA knock down; 10 ug/ml mAb vs mIgG1 kappa isotype
[3] = biological target: T1, human VSIG10 flag protein over-expressed in HEK293 cells (stable pool) (human); assay: FACS titration (4 concentrations) on HEK293 cells over-expressing human VSIG10 Flag; Kd from binding curve
T1 chain: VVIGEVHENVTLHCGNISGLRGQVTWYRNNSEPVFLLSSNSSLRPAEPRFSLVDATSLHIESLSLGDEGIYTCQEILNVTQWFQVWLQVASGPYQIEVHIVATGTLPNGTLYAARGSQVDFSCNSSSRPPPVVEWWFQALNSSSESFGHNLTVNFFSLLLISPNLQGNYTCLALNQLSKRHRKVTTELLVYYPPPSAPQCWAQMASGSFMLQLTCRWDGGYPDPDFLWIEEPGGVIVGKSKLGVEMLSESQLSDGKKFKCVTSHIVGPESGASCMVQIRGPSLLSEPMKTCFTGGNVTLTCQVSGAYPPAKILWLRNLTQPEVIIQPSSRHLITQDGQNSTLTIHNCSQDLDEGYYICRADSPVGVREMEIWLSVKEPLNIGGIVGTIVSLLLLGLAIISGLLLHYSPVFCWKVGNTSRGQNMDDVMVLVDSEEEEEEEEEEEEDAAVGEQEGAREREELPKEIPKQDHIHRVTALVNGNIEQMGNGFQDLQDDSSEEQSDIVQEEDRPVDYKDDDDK
Description: (§1) The mAb binding was evaluated on HEK293 cells over expressing human VSIG10 as well.
(§2) Detection was carried out using Goat Anti mouse-PE secondary Ab.

[4] = biological target: human VSIG10 protein endogenously expressed on human cell lines (DAN-G, AsPc1/ASPC-1, DU-145, ZR-75) (human) (UniProt Q8N0Z9); assay: FACS titration (4 concentrations) on DU-145 human cell line endogenously expressing VSIG10, vs mIgG1 kappa isotype; Kd from binding curve
[5] = biological target: T1, human VSIG10 flag protein …; assay: FACS on HEK293 cells over-expressing human VSIG10 Flag vs HEK293 empty vector cells; goat anti mouse PE detection
Description: The performance of the purified mAbs against human VSIG10, in FACS application were tested using HEK293 cells over-expressing human VSIG10 Flag. HEK293 cells transfected with an empty vector were used as a negative control.
Detection was carried out using Goat anti mouse PE secondary Ab.

[6] = biological target: human VSIG10 protein endogenously expressed on human cell lines (DAN-G, AsPc1/ASPC-1, DU-145, ZR-75) (human) (UniProt Q8N0Z9); assay: FACS on DAN-G cells transfected with scrambled (non-target) siRNA; 10 ug/ml mAb vs mIgG1 kappa isotype
[7] = biological target: human VSIG10 protein endogenously expressed on human cell lines (DAN-G, AsPc1/ASPC-1, DU-145, ZR-75) (human) (UniProt Q8N0Z9); assay: FACS on AsPc1 cells transfected with scrambled (non-target) siRNA; 10 ug/ml mAb vs mIgG1 kappa isotype
[8] = biological target: T1, human VSIG10 flag protein …; assay: FACS titration (8 concentrations) on HEK293 cells over-expressing human VSIG10 Flag; Kd from binding curve
Description: as §1, §2

[9] = biological target: human VSIG10 protein endogenously expressed on human cell lines (DAN-G, AsPc1/ASPC-1, DU-145, ZR-75) (human) (UniProt Q8N0Z9); assay: FACS titration (8 concentrations) on ASPC-1 human cell line endogenously expressing VSIG10, vs mIgG1 kappa isotype; Kd from binding curve

B1: AB-577 anti-human VSIG10 mouse monoclonal antibody (antibody, V domains shown)
VH: QVQLQQSGPELVRPGASVKMSCKPSGYRFTDYAISWVKQRTGQGLEWVGEIYPGNGNTYFNEKFKDKATLTADRSSNTAYMQLSSLTSEDSAVYFCARGYANYLPWGQGTLVTVSA
VL: DIQMTQSSSSFSVSLGDRVTITCKASEDIYNRLAWYQQKPGNAPRLLISGATGLETGVPSRISGSGSGRDYTLSITSLQTEDVGTYYCQQYWSTPRTFGGGTKLEIK
notes: clonal supernatant was also tested in WB
- MFI ratio of anti VSIG10 versus isotype control [1]: 3.54 fold
- MFI ratio of anti VSIG10 versus isotype control [2]: 5.2 fold
- Kd [3]: 4.67 nM
- Kd [4]: 4.62 nM
- fold change MFI ratio (VSIG10 Flag cells vs empty vector cells) [5]: 160 fold
- MFI ratio of anti VSIG10 versus isotype control [6]: 12 fold
- MFI ratio of anti VSIG10 versus isotype control [7]: 9.3 fold

B2: AB-576 anti-human VSIG10 mouse monoclonal antibody (antibody, V domains shown)
VH: EVQLQQSGPELVKPGASVKMSCKASGYTFTDYYMKWVKQSHGKSLEWIGDINPNNGGTTYNQKFKGKATLTVDKSSNTAYMQFNSLTSEDSAVYFCARFRLRAMDYWGQGTSVTVSS
VL: DIVMTQSPSSLTVTAGEKVTMSCKSSQSLLNSGDRKNYLTWYQQRPGLPPKLLIYWASTRESGVPDRFTGSGSGTDFTLTISSVQSEDLAVYFCQNDYIYPLTFGAGTKLELK
notes: as for B1
- MFI ratio of anti VSIG10 versus isotype control [1]: 2.8 fold
- MFI ratio of anti VSIG10 versus isotype control [2]: 4.4 fold
- Kd [8]: 4.14 nM
- fold change MFI ratio (VSIG10 Flag cells vs empty vector cells) [5]: 219 fold
- MFI ratio of anti VSIG10 versus isotype control [6]: 9.5 fold
- Kd [9]: 5.85 nM
- MFI ratio of anti VSIG10 versus isotype control [7]: 9.5 fold
